According to patent publication US20100144645A1, “COMPOSITIONS AND METHODS FOR ENHANCING […] POTENCY OF […]-COMPOUNDS, A[…] ADVERSE SIDE EFFECTS, AND […] ABUSE” (SHIRE LLC, priority 2006, published 2010):
Counter-ions that a name gives are not always drawn. Residues, ends and D or L forms follow the SMILES beside them. *: point of attachment. X4 = CC(=O)Oc1ccc2c3c1OC1C(O*)=CCC4[C@@H](C2)N(C)CC[C@]314; X2 = CN1CC[C@]23c4c5ccc(O)c4O[C@H]2C(O*)=CC[C@H]3[C@H]1C5; X1 = COc1ccc2c3c1OC1C(O*)=CCC4[C@@H](C2)N(C)CC[C@]314; X3 = CN1CC[C@]23c4c5ccc(O)c4OC2C(O*)=CCC3[C@H]1C5

Key:
[1] = Intranasal bioavailability of hydrocodone conjugates; details: rats, relative to hydrocodone
[2] = stability 90 C., 20 min (V, BP, TW, BS) of hydrocodone conjugates; details: for stability 90 C., 20 min BP: BP (abbreviation not defined); for stability 90 C., 20 min BS: BS (abbreviation not defined); for stability 90 C., 20 min TW: TW (abbreviation not defined); for stability 90 C., 20 min V: V (abbreviation not defined)
[3] = Oral bioavailability of hydrocodone conjugates (plasma hydrocodone plus hydromorphone); details: for bioavailabiltty (% HC) oral AUC / bioavailabiltty (% HC) oral Cmax: rats, relative to hydrocodone; for Oral:IN Index AUC: ratio of oral to IN AUC (% HC); for Oral:IN Index Cmax: ratio of oral to IN Cmax (% HC)
[4] = Oral bioavailability of hydromorphone conjugates; details: rats; for Oral AUC %: corrected value calculated based on the bioavailability of the control (HM); for Oral Cmax %: corrected value calculated based on the control (HM)
[5] = Intranasal bioavailability of hydromorphone conjugates; details: rats; for IN AUC %: corrected value calculated based on the bioavailability of the control (HM); for IN Cmax %: corrected value calculated based on the control (HM)

Compound | Oral AUC % [4] [%] | Oral Cmax % [4] [%] | IN AUC % [5] [%] | IN Cmax % [5] [%] | other results
COc1ccc2c3c1OC1C(OC(=O)[C@H](Cc4ccccc4)NC(=O)CNC(=O)CNC(=O)[C@H](CCC(=O)O)NC(=O)[C@@H](N)CCC(=O)O)=CCC4[C@@H](C2)N(C)CC[C@]314 (stereo partly drawn) [Glu2-Gly2-Phe-HC] (H-EEGGF-X1) |  |  |  |  | bioavailabiltty (% HC) IN AUC [1]: 89 % HC; bioavailabiltty (% HC) IN Cmax [1]: 97 % HC; stability 90 C., 20 min BP [2]: 100; stability 90 C., 20 min BS [2]: 100; stability 90 C., 20 min TW [2]: 100; stability 90 C., 20 min V [2]: 0; bioavailabiltty (% HC) oral AUC [3]: 110 % HC; bioavailabiltty (% HC) oral Cmax [3]: 112 % HC; Oral:IN Index AUC [3]: 1.24; Oral:IN Index Cmax [3]: 1.15
CC(C)C[C@H](NC(=O)[C@@H]1CCCN1C(=O)[C@@H]1CCCN1)C(=O)OC1=CCC2[C@H]3Cc4ccc(O)c5c4[C@@]2(CCN3C)C1O5 (stereo partly drawn) [PPL-HM] | 22 | 45 | 53 | 70 | 
CC[C@H](C)[C@H](NC(=O)[C@H](CC(=O)O)NC(=O)[C@H](CC(=O)O)NC(=O)[C@H](CCC(=O)O)NC(=O)[C@@H](N)CCC(=O)O)C(=O)OC1=CCC2[C@H]3Cc4ccc(OC)c5c4[C@@]2(CCN3C)C1O5 (stereo partly drawn) [Glu2-Asp2-Ile-HC] (H-EEDDI-X1) |  |  |  |  | bioavailabiltty (% HC) IN AUC [1]: 53 % HC; bioavailabiltty (% HC) IN Cmax [1]: 81 % HC; stability 90 C., 20 min BP [2]: 77; stability 90 C., 20 min BS [2]: 100; stability 90 C., 20 min TW [2]: 15; stability 90 C., 20 min V [2]: 1; bioavailabiltty (% HC) oral AUC [3]: 108 % HC; bioavailabiltty (% HC) oral Cmax [3]: 129 % HC; Oral:IN Index AUC [3]: 2.04; Oral:IN Index Cmax [3]: 1.59
Gly-Gly-Leu-Hydrocodone [Gly-Gly-Leu-HC] |  |  |  |  | stability 90 C., 20 min BP [2]: 100; stability 90 C., 20 min BS [2]: 100; stability 90 C., 20 min TW [2]: 85; stability 90 C., 20 min V [2]: 1
CC[C@H](C)[C@H](NC(=O)CNC(=O)CN)C(=O)OC1=CCC2[C@H]3Cc4ccc(O)c5c4[C@@]2(CCN3C)C1O5 (stereo partly drawn) [GGI-HM] | 17 | 32 | 24 | 66 | 
CC(C)[C@H](NC(=O)[C@H](CCCCN)NC(=O)[C@@H](N)CCCCN)C(=O)OC1=CCC2[C@H]3Cc4ccc(O)c5c4[C@@]2(CCN3C)C1O5 (stereo partly drawn) [KKV-HM] | 43 | 60 | 75 | 89 | 
CC(C)[C@H](NC(=O)[C@H](Cc1ccc(O)cc1)NC(=O)[C@@H](N)Cc1ccc(O)cc1)C(=O)OC1=CCC2[C@H]3Cc4ccc(O)c5c4[C@@]2(CCN3C)C1O5 (stereo partly drawn) [YYV-HM] | 30 | 53 | 73 | 73 | 
CN1CC[C@]23c4c5ccc(O)c4O[C@H]2C(OC(=O)[C@H](Cc2ccccc2)NC(=O)[C@H](Cc2ccccc2)NC(=O)[C@H](Cc2ccccc2)NC(=O)[C@H](CCC(=O)O)NC(=O)[C@@H](N)CCC(=O)O)=CC[C@H]3[C@H]1C5 [EEFFF-HM, Glu2-Phe3-Hydromorphone.Dihydrochloride] (H-EEFFF-X2) | 79 | 78 | 52 | 57 | 
CC[C@H](C)[C@H](NC(=O)CNC(=O)CN)C(=O)OC1=CCC2[C@H]3Cc4ccc(OC)c5c4[C@@]2(CCN3C)C1O5 (stereo partly drawn) [Gly-Gly-Ile-HC] |  |  |  |  | stability 90 C., 20 min BP [2]: 100; stability 90 C., 20 min BS [2]: 100; stability 90 C., 20 min TW [2]: 93; stability 90 C., 20 min V [2]: 0
CC(C)C[C@H](NC(=O)[C@H](CCCCN)NC(=O)[C@@H](N)CCCCN)C(=O)OC1=CCC2[C@H]3Cc4ccc(O)c5c4[C@@]2(CCN3C)C1O5 (stereo partly drawn) [KKL-HM] | 24 | 50 | 87 | 96 | 
CC(C)[C@H](NC(=O)[C@H](Cc1ccccc1)NC(=O)[C@@H](N)Cc1ccccc1)C(=O)OC1=CC[C@H]2[C@H]3Cc4ccc(O)c5c4[C@@]2(CCN3C)[C@H]1O5 [FFV-HM] | 8 | 36 | 98 | 103 | 
CC(C)[C@H](NC(=O)[C@@H]1CCCN1C(=O)[C@@H]1CCCN1)C(=O)OC1=CCC2[C@H]3Cc4ccc(O)c5c4[C@@]2(CCN3C)C1O5 (stereo partly drawn) [PPV-HM] | 24 | 55 | 71 | 101 | 
CC(C)C[C@H](NC(=O)[C@H](Cc1ccccc1)NC(=O)[C@@H](N)Cc1ccccc1)C(=O)OC1=CC[C@H]2[C@H]3Cc4ccc(O)c5c4[C@@]2(CCN3C)[C@H]1O5 [FFL-HM] | 11 | 24 | 92 | 96 | 
CC(C)C[C@H](NC(=O)[C@H](Cc1ccc(O)cc1)NC(=O)[C@@H](N)Cc1ccc(O)cc1)C(=O)OC1=CCC2[C@H]3Cc4ccc(O)c5c4[C@@]2(CCN3C)C1O5 (stereo partly drawn) [YYL-HM] | 12 | 30 | 74 | 75 | 
CC[C@H](C)[C@H](NC(=O)[C@H](Cc1ccc(O)cc1)NC(=O)[C@@H](N)Cc1ccc(O)cc1)C(=O)OC1=CCC2[C@H]3Cc4ccc(O)c5c4[C@@]2(CCN3C)C1O5 (stereo partly drawn) [YYI-HM] | 32 | 66 | 88 | 86 | 
CC[C@H](C)[C@H](NC(=O)[C@H](Cc1ccccc1)NC(=O)[C@H](Cc1ccccc1)NC(=O)[C@H](Cc1ccc(O)cc1)NC(=O)[C@@H](N)Cc1ccc(O)cc1)C(=O)OC1=CCC2[C@H]3Cc4ccc(O)c5c4[C@@]2(CCN3C)C1O5 (stereo partly drawn) [YYFFI-HM] (H-YYFFI-X3) | 40 | 52 | 4 | 7 | 
CC[C@H](C)[C@H](NC(=O)[C@@H]1CCCN1C(=O)[C@@H]1CCCN1)C(=O)OC1=CCC2[C@H]3Cc4ccc(O)c5c4[C@@]2(CCN3C)C1O5 (stereo partly drawn) [PPI-HM] | 21 | 60 | 77 | 95 | 
CC[C@H](C)[C@H](NC(=O)[C@H](Cc1ccccc1)NC(=O)[C@H](Cc1ccccc1)NC(=O)[C@H](Cc1ccc(O)cc1)NC(=O)[C@@H](N)Cc1ccc(O)cc1)C(=O)OC1=CCC2[C@H]3Cc4ccc(OC(C)=O)c5c4[C@@]2(CCN3C)C1O5 (stereo partly drawn) [YYFFI-HM-OAc] (H-YYFFI-X4) | 29 | 40 | 59 | 72 | 
(d)-Lys-(1)-Lys-Ile-Hydrocodone [(d)Lys(I)Lys-Ile-HC] |  |  |  |  | stability 90 C., 20 min BP [2]: 69; stability 90 C., 20 min BS [2]: 100; stability 90 C., 20 min TW [2]: 74; stability 90 C., 20 min V [2]: 0
CC[C@H](C)[C@H](NC(=O)[C@H](CCC(=O)O)NC(=O)[C@@H](N)CCC(=O)O)C(=O)OC1=CC[C@H]2[C@H]3Cc4ccc(O)c5c4[C@@]2(CCN3C)[C@H]1O5 [EEI-HM] | 56 | 73 | 59 | 88 | 
CC(C)C[C@H](NC(=O)[C@H](CCC(=O)O)NC(=O)[C@@H](N)CCC(=O)O)C(=O)OC1=CC[C@H]2[C@H]3Cc4ccc(O)c5c4[C@@]2(CCN3C)[C@H]1O5 [EEL-HM] | 27 | 49 | 84 | 98 | 
CC[C@H](C)[C@H](NC(=O)[C@@H]1CCCN1C(=O)[C@@H]1CCCN1)C(=O)OC1=CCC2[C@H]3Cc4ccc(OC)c5c4[C@@]2(CCN3C)C1O5 (stereo partly drawn) [Pro-Pro-Ile-HC] |  |  |  |  | stability 90 C., 20 min BP [2]: 16; stability 90 C., 20 min BS [2]: 100; stability 90 C., 20 min TW [2]: 70; stability 90 C., 20 min V [2]: 0
CC[C@H](C)[C@H](NC(=O)[C@H](CCCCN)NC(=O)[C@@H](N)CCCCN)C(=O)OC1=CCC2[C@H]3Cc4ccc(O)c5c4[C@@]2(CCN3C)C1O5 (stereo partly drawn) [KKI-HM] | 24 | 56 | 68 | 85 | 
CC[C@H](C)[C@H](NC(=O)[C@H](Cc1ccccc1)NC(=O)[C@@H](N)Cc1ccccc1)C(=O)OC1=CC[C@H]2[C@H]3Cc4ccc(O)c5c4[C@@]2(CCN3C)[C@H]1O5 [FFI-HM] | 18 | 47 | 79 | 92 | 
CC(C)[C@H](NC(=O)CNC(=O)CN)C(=O)OC1=CCC2[C@H]3Cc4ccc(O)c5c4[C@@]2(CCN3C)C1O5 (stereo partly drawn) [GGV-HM] | 53 | 63 | 51 | 73 | 
CC(C)[C@H](NC(=O)[C@H](CCC(=O)O)NC(=O)[C@@H](N)CCC(=O)O)C(=O)OC1=CC[C@H]2[C@H]3Cc4ccc(O)c5c4[C@@]2(CCN3C)[C@H]1O5 [EEV-HM] | 21 | 50 | 31 | 70 | 
CC(C)C[C@H](NC(=O)CNC(=O)CN)C(=O)OC1=CCC2[C@H]3Cc4ccc(O)c5c4[C@@]2(CCN3C)C1O5 (stereo partly drawn) [GGL-HM] | 22 | 43 | 52 | 85 | 
CC[C@H](C)[C@H](NC(=O)[C@@H]1CCCN1C(=O)[C@@H]1CCCN1C(=O)[C@H](Cc1ccc(O)cc1)NC(=O)[C@@H](N)Cc1ccc(O)cc1)C(=O)OC1=CCC2[C@H]3Cc4ccc(OC)c5c4[C@@]2(CCN3C)C1O5 (stereo partly drawn) [Tyr2-Pro2-Ile-HC] (H-YYPPI-X1) |  |  |  |  | stability 90 C., 20 min BP [2]: 100; stability 90 C., 20 min BS [2]: 100; stability 90 C., 20 min TW [2]: 83; stability 90 C., 20 min V [2]: 0; bioavailabiltty (% HC) oral AUC [3]: 218 % HC; bioavailabiltty (% HC) oral Cmax [3]: 213 % HC
